Our source for the percent reduction of affinity against Nek2A-4A values is PMC6317306.

The assay addresses FLAG-Cep85-6D (UniProt Q6P2H3). In words: co-IP.

B1: HA-Nek2A (enzyme)
chain: MPSRAEDYEVLYTIGTGSYGRCQKIRRKSDGKILVWKELDYGSMTEAEKQMLVSEVNLLRELKHPNIVRYYDRIIDRTNTTLYIVMEYCEGGDLASVITKGTKERQYLDEEFVLRVMTQLTLALKECHRRSDGGHTVLHRDLKPANVFLDGKQNVKLGDFGLARILNHDTSFAKTFVGTPYYMSPEQMNRMSYNEKSDIWSLGCLLYELCALMPPFTAFSQKELAGKIREGKFRRIPYRYSDELNEIITRMLNLKDYHRPSVEEILENPLIADLVADEQRRNLERRGRQLGEPEKSQDSSPVLSELKLKEIQLQERERALKAREERLEQKEQELCVRERLAEDKLARAENLLKNYSLLKERKFLSLASNPELLNLPSSVIKKKVHFSGESKENIMRSENSESQLTSKSKCKDLKKRLHAAQLRAQALSDIEKNYQLKSRQILGMR
Molecule B1 displayed a percent reduction of affinity against Nek2A-4A of 50%.

B2: HA-Nek2A-4D (enzyme)
chain: MPSRAEDYEVLYTIGTGSYGRCQKIRRKSDGKILVWKELDYGSMTEAEKQMLVSEVNLLRELKHPNIVRYYDRIIDRTNTTLYIVMEYCEGGDLASVITKGTKERQYLDEEFVLRVMTQLTLALKECHRRSDGGHTVLHRDLKPANVFLDGKQNVKLGDFGLARILNHDTSFAKTFVGTPYYMSPEQMNRMSYNEKSDIWSLGCLLYELCALMPPFTAFSQKELAGKIREGKFRRIPYRYSDELNEIITRMLNLKDYHRPSVEEILENPLIADLVADEQRRNLERRGRQLGEPEKSQDSSPVLSELKLKEIQLQERERALKAREERLEQKEQELCVRERLAEDKLARAENLLKNYDLLKERKFLDLASNPELLNLPSSVIKKKVHFSGESKENIMRSENSESQLTDKSKCKDLKKRLHAAQLRAQALSDIEKNYQLKDRQILGMR
On to B2, for which the percent reduction of affinity against Nek2A-4A is more than 60%.
